From PMC7311520, “β-carboline chemical signals induce reveromycin production through a LuxR family regulator in Streptomyces sp. SN-593” (Scientific Reports, 2020) come the findings set out here.

Data set [1] has as its target T1, RevU (LuxR family transcriptional regulator) (Actinacidiphila reveromycinica, UniProt G1UDV5).
T1 construct: purified His6-tagged RevU expressed in E. coli from a codon-optimized synthetic gene
Nature of the data set: SPR (Biacore T200, His6-RevU immobilized on NTA chip); supported by BR-1 bead pull-down with free BR-1 competition. The class given is binding. (In general: Surface plasmon resonance follows binding to a sensor surface in real time, without labels.)

Data set [2] addresses T2, RevU (LuxR family regulator), His6-tagged (Streptomyces sp. SN-593 (S. …, UniProt G1UDV5)).
T2 sequence: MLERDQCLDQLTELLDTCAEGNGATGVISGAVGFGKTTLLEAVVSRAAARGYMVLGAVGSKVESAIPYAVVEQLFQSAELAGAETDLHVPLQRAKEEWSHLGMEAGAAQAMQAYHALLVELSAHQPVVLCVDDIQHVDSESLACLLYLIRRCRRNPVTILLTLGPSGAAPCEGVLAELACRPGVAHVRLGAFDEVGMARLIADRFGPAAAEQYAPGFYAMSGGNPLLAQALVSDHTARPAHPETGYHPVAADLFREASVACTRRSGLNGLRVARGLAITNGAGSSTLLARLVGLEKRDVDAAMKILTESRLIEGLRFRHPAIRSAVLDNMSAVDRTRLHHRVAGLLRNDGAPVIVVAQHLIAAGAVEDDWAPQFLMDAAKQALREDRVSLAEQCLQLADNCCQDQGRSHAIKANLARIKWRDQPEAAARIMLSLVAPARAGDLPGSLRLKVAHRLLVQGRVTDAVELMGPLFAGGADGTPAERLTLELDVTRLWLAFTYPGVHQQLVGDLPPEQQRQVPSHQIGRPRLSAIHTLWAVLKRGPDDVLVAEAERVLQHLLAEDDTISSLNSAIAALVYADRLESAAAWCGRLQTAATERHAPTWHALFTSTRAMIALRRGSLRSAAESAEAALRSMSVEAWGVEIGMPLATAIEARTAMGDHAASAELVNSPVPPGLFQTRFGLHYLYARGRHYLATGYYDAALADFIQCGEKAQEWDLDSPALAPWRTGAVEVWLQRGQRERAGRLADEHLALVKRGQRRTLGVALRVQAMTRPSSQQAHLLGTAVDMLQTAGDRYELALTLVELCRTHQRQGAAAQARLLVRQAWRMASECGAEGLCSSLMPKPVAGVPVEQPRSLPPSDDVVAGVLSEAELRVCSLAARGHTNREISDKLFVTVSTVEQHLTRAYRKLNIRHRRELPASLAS
Nature of the data set: SPR; compound 3 (tetrahydro BR-1), 125 nM RevU; not enhanced; SPR: 10 mM HEPES pH 7.4, 3 mM EDTA, 150 mM NaCl, 0.05% Tween-20, 25 C, RevU 3.9-250 nM; BLI: 10 mM HEPES pH 7.3, 3 mM EDTA, 150 mM NaCl, 0.05% Tween-20, room temperature. The note with it: protein: recombinant; tags: His6 (pColdI); chain copies: 2; label: 5'-biotin; blunt.

Data set [3] deals with T2, RevU (LuxR family regulator), …. The data set can be described thus: SPR; no BR-1; SPR: 10 mM HEPES pH 7.4, 3 mM EDTA, 150 mM NaCl, 0.05% Tween-20, 25 C, RevU 3.9-250 nM; BLI: 10 mM HEPES pH 7.3, 3 mM EDTA, 150 mM NaCl, 0.05% Tween-20, room temperature. Particulars: protein: recombinant; tags: His6 (pColdI); chain copies: 2; label: 5'-biotin; blunt.

Broadly, the Kd is the constant that tells how readily two partners part at equilibrium. A high value points to weaker binding. In data set [1], `NC(=O)c1cc2c([nH]c3ccccc32)c(-c2ccccc2)n1` [compound 1, BR-1] gave a Kd of 1310 nM.

B1: Fragment 1-1 (dsDNA)
DNA 1: ACGCCGCAACGACCAACAGAGG
DNA 2: CCTCTGTTGGTCGTTGCGGCGT
B1: the binding result in data set [2] is “binds”.

B2: Fragment 4 (dsDNA)
DNA 1: GATTATGCGTCGCATTCGGTGTTTGTGGAGTTGATCGAGGATCGGGTTCT
DNA 2: AGAACCCGATCCTCGATCAACTCCACAAACACCGAATGCGACGCATAATC
As for B2, in data set [3], the binding result was “binds”.
